Source: the DeepSol protein solubility set

assay: soluble on expression in E. coli; label from the status in PepcDB or PDB records

Sequence | soluble on expression in E. coli
MSEQAPAPKRGRRFKEQTPVQRALGLLVHREHSKKELNRKLQARGIEPEAAQAAVERLAGEGWQDDVRFAASVVRNRASSGYGPLHIRAELGTHGLDSDAVSAAMATFEGDWTENALDLIRRRFGEDGPVDLAQRRKAADLLARRGFDGNSIRLATRFDLED | soluble
MPNYRGRHQTRQNWSSKPREEHSPSKGAYRDKIWSGPVSEVARQQTVYDWVTTGAYSLGSPDSWPSYPDEIILMNESRNAQTSRMSRRSATPGPRLSQDRRTRTTAPAVAPIPFQRAQPRVEVERQRIDEPVAQDLIIDDGNGTNNSNDSSICGFVEESEELVYPQWVYYLYPLIPTAPNCNNEKSYKEGGNWYNSP | not soluble
MGSDKIHHHHHHMGGLKMKVIILGSGSYSGTPKPLCTCENCTRARINPAFRRTRFSVYIEGGILIDPGPDLHYHLEKLNKEVETILITHAHFDHIFGLPDAQVFKKLTIASNPLGIKVARSLAMLAFNSEAPLGNDWDYVELKFWNEYKVNGVKVIHFPVVHSIEMAGGFLIERKNKTVAITGDTGPEIIRDSEVIDLIKGSDLLISEMTHKESIPKTHLGVNDAIELAKIVKAEQTVFAHISHSNYPQEILEKKVREAKISGIVARDFTIIEI | not soluble
MELQLAIDLLNKEEAAKLAQKVEEYVDIVEIGTPIVINEGLPAVQHLNENINNAKVLADLKIMDAADYEVSQAVKYGADIVTILGVAEDASIKAAVEEAHKHGKALLVDMIAVQNLEQRAKELDEMGADYIAVHTGYDLQAEGKSPLDSLRTVKSVIKNSKVAVAGGIKPDTIKDIVAEDPDLVIVGGGIANADDPVEAAKQCRVAIEG | not soluble
MSDLQKLIQGKIKTIAFAHDSTRVIQCFIQYGNEEQRKQAFQELQGDLVELSKAKYSRNIVKKFLMYGSKPQAAEIIRSFKGHVRKMLRHSEASAIVEYAYNDKAILEQRNMLTEELYGNTFQLYKSADHPTLDKVLELQPAKLELIMDEMKQVLTPMAQKEAVIKHSLVHKVFLDFFTYAPPKPRSELIEAIREAVVYLAHTHDGARVAMHCLWHGTPKDRKVIVKTMKTYVERVANVSAARARFLKSD | not soluble
MAISLRQLEIFEKVAQCEHVTQASTQLFLTQSAVSMAIAELERVAGAPLFERRGKRLLLNDRGRKILPEAEEVVRRTRAIEQFLEDSAGEPRGVLNVGASTTIGNYILPELIAEFSGNYPDAKVLLTIGNAHQIEHALEKGELDLGLIEGIPHSGVLDSTPWKKDELVVVVGKGHPWACDGAASVEMLGNAPWIMRETGSGTREVFEGAMAGKGISFSISLELGHTEAIKKAIEAGLGVGCLSRIAVNRELEHGWLVEIACPLDLKRTLSLQTRQSGYKTRLLCAFWSLLNRHKDI | not soluble
GSPEFMIGEEVPSDQYYWAPLAQHERGSLASLDSLRKGGPPPPNWRQPELPEVIAMLGFRLDAVKSNAAAYLQHLCYRNDKVKTDVRKLKGIPVLVGLLDHPKKEVHLGACGALKNISFGRDQDNKIAIKNCDGVPALVRLLRKARDMDLTEVITGTLWNLSSHDSIKMEIVDHALHALTDEVIIPHSGWEREPNEDCKPRHIEWESVLTNTAGCLRNVSSERSEARRKLRECDGLVDALIFIVQAEIGQKDSDSKLVENCVCLLRNLSYQVHREIPQAERYQEAAPNVANNTGTSPARGYELLFQPEVVRIYISLLKESKTPAILEASAGAIQNLCAGRWTYGRYIRSALRQEKALSAIADLLTNEHERVVKAASGALRNLAVDARNKELIGKHAIPNLVKNLPGGQQNSSWNFSEDTVISILNTINEVIAENLEAAKKLRETQGIEKLVLINKSGNRSEKEVRAAALVLQTIWGYKELRKPLEKEGWKKSDFQVNLNNASRSQSSHSYDDSTLPLIDRNQKSDKKPDREEIQMSNMGSNTKSLDNNYSTPNERGDHNRTLDRSGDLGDMEPLKGTTPLMQKI | soluble
MPYLLYHHFDPTFDHQNLKPGLAVGKGKVDHYNLGYVQNVVKGQVLAEFIPIDDTDDPVIDRNHIFEEPLLPVGPNCKVDPDSPLRVVADANGYVFYNDGLITVKRMLNVRRDVDFHTGNIFFVSDIAVHGDVRAGFEVQGNNILVKGIIEGATVRARGSLAVEGGARGSGGSGLLDAGDTLRVPFAESMELRAHGNILIEKFCLHSLVYAATNLVVKNRLQGGTVHCNGLVYVETHLGNPKGTPTATRINMGYDPFTMRKLDRLEQHIRELQDSLTHIAGIAGNLGSDSAPGKRLDNARKKLNRLIRQREALWAALTEDEARAALCRVVVPGTVYPGVEISIGKAFFEVEHEMNNVSFSLADGSIVVTSPAIIKKKALEHHHHHH | not soluble
MGHHHHHHSHMNSAEQTVTWLITLGVLESPKKTISDPEGFLQASLKDGVVLCRLLERLLPGTIEKVYPEPRSESECLSNIREFLRGCGASLRLELLFPPSQPPQHLVTTILLSASTFDANDLYQGQNFNKVLSSLVTLNKVTADIGLGSDSVCARPSSHRIKSFDSLGSQSLHTR | soluble
MGSDKIHHHHHHMIQSYPVERSRTIQTRLVLPPDTNHLGTIFGGKVLAYIDEIAALTAMKHANSAVVTASIDSVDFKSSATVGDALELEGFVTHTGRTSMEVYVRVHSNNLLTGERTLTTESFLTMVAVDESGKPKPVPQVEPQTEEEKRLYETAPARKENRKKRAALR | soluble
MEEIILVFPKEELEVRAMEFKKEFLDCGERIINGSFKLDYVDDYAEWLKIIRNNLKKETVNPKWVVSTTFFAVRKSDNKIIGIVNLRHYLNDFYKNSGHIGYSVRPSERRKGYASEILRQILEYAREKGLTEVCVVCKKENEASRKTILKNGGILSRTFKDEGEEHEAFYINTKKH | not soluble
MYTKNFSNSRMEVKGNNGCSAPIIRKPFKHIVLTVPSSDLDNFNTVFYVQPQYINQALHLANAFQGAIDPLNLNFNFEKALQIANGIPNSAIVKTLNQSVIQQTVEISVMVEQLKKIIQEVLGLVINSTSFWNSVEATIKGTFTNLDTQIDEAWIFWHSLSAHNTSYYYNILFSIQNEDTGAVMAVLPLAFEVSVDVEKQKVLFFTIKDSARYEVKMKALTLVQALHSSNAPIVDIFNVNNYNLYHSNHKIIQNLNLSN | soluble
MFSPEQIAGKDVRLLRIKKEGSLDLALEGGVDSPVGKVVVSAVYEGGAAERHGGVVKGDEIMAINGKIVTDYTLAEAEAALQKAWNQGGDWIDLVVAVCPPKEYDDELTFF | soluble
MADDAGILYENSLDLLKSMKNFAGNVGEGEKKHPYGKAANAARAYGSGMKNSAASFNHSGEQFDKLFEACNTFKDQINGNVLAKLISFKDVECKDVDTQMTQLKKAQKDYANKKSKIVPDQVQVDAAEATLKKLLEEAKATLEKFNKTGCELLTQISADMKTGFDAYCDAAASIN | not soluble
MYTPLYRPRYPEGLDPGIQHGVLRLLNPDPRVGEAEHRLENLLEPPYGGPPPPYYQSRPLRPYCYVSAEAGLNNLDPAVPRFVEVLSQPLVYLSPQETLV | soluble
LALQAKQYGDFDRYVLALSWQTGFCQSQHDRNRNERDECRLQTETTNKADFLTVHGLWPGLPKSVAARGVDERRWMRFGCATRPIPNLPEARASRMCSSPETGLSLETAAKLSEVMPGAGGRSCLERYEYAKHGACFGFDPDAYFGTMVRLNQEIKESEAGKFLADNYGKTVSRRDFDAAFAKSWGKENVKAVKLTCQGNPAYLTEIQISIKADAINAPLSANSFLPQPHPGNCGKTFVIDKAGY | soluble
MSLDRIKEYLQDKGKVTVNDLAQALGKDSSKDFRELIKTLSLMERKHQIRFEEDGSLTLEAKKKHEITLKGIFHAHKNGFGFVSLEGEEDDLFVGKNDVNYAIDGDTVEVVIKKVADRNKGTAAEAKIIDILEHSLTTVVGQIVLDQEKPKYAGYIRSKNQKISQPIYVKKSALKLEGTEVLKVFIDKYPSKKHDFFVASVLDVVGHSTDVGIDVLEVLESMDIVSEFPEAVVKEAESVPDAPSQKDMEGRLDLRDEITFTIDGADAKDLDDAVHIKALKNGNLELGVHIADVSYYVTEGSALDKEALNRATSVYVTDRVVPMLPERLSNGICSLNPQVDRLTQSAIMEIDKHGRVVNYTITQTVIKTSFRMTYSDVNDILAGDEEKRKEYHKIVSSIELMAKLHETLENMRVKRGALNFDTNEAKILVDKQGKPVDIVLRQRGIAERMIESFMLMANETVAEHFSKLDLPFIYRIHEEPKAEKVQKFIDYASSFGLRIYGTASEISQEALQDIMRAVEGEPYADVLSMMLLRSMQQARYSEHNHGHYGLAADYYTHFTSPIRRYPDLLVHRMIRDYGRSKEIAEHFEQVIPEIATQSSNRERRAIEAEREVEAMKKAEYMEEYVGEEYDAVVSSIVKFGLFVELPNTVEGLIHITNLPEFYHFNERDLTLRGEKSGITFRVGQQIRIRVERADKMTGEIDFSFVPSEFDVIEKGLKQSSRSGRGRGSNRRSDKKEDKRKSGRSNDKRKHSQKDKKKKGKKPFYKEVAKKGAKHGKGRGKGRRTKEGHHHHHH | not soluble
AGMELVGWLVDKGITSEKQWIQEDQASYISFNAASNSRSQIKAALDNAGKIMSLTKTAPDYLVGQQPVEDISSNRIYKILELNGYDPQYAASVFLGWATKKFGKRNTIWLFGPATTGKTNIAEAIAHTVPFYGCVNWTNENFPFNDCVDKMVIWWEEGKMTAKVVESAKAILGGSKVRVDQKCKSSAQIDPTPVIVTSNTNMCAVIDGNSTTFEHQQPLQDRMFKFELTRRLDHDFGKVTKQEVKDFFRWAKDHVVEVEHEFYVKKGG | soluble
SMSRKRPPSDIHDSDGSSSSSHQSLKSTAKWAASLENLLEDPEGVKRFREFLKKEFSEENVLFWLACEDFKKMQDKTQMQEKAKEIYMTFLSSKASSQVNVEGQSRLNEKILEEPHPLMFQKLQDQIFNLMKYDSYSRFLKSDLFLKHKRTEE | soluble
MAHHHHHHMDVEERTRRCSSLGLAVRNLPRDTASSFVHKFFEDHVGCVQEVMMHSSRPNQSRNIAAPNTNGVDQGKRGNDDNDPPASFGLSGRRDGNSSSGIAVKTCSNDADGNTLCLVFFSAAECVRLAKLLYMRRPELFNVLGVVDGKELRLTIPSKLIRLSRTAHAHCDDGDNTRSKKSSQGEEDTPKGDAEKNDAGT | not soluble
MGSDKIHHHHHHMRIILYLGKGGVGKTTVSASTATAIARSGKRVLIMSTDVAHSLADAFGVELSSTPVEVEKNLFAMEVNILAEIRENWTELYSYFSSILMHDGTNEIVAEELAIVPGMEEMISLRYIWKAAKSGKYDAVVVDAAPTGETMRLLGMPESYGWYSEKIGGWHSKAIGFAAPLLSRFMPKKNIFKLMPEVNEHMKELHGMLQDKSITTFRVVLNPENMVIKEALRVQTYLNLFGYKLDAAVVNKVLPSNSSDPYLQALIDQQAKYLRVIDNCFYPVPIFRAMQSSKEVISTDRLYDLSQELFSGRNPMEVLYSNDKTQTLEKINGKYVLSLYLPNVEVDKLAVNIKGDELLVDINNFRKSIVLPNVLVGRKTEGADFEQGTLNITFAN | not soluble
MGAPALPQIWQLYLKNYRIATFKNWPFLEDCACTPERMAEAGFIHCPTENEPDLAQCFFCFKELEGWEPDDNPIEEHRKHSPGCAFLTVKKQMEELTVSEFLKLDRQRAKNKIAKETNNKQKEFEETAKTTRQSIEQLAA | soluble
DPVFLDIFKSDKEDYEQRLRGAIREELNAFWQAKQPMIGLYLGEAMVGVACINSPDETLASDRFWHWRLKMLLNAGYFSTKQMMQKEHTVLAAVPLKIFHFLSFIAVHPLHQQHGFGHYLMAAVNTVLDEHPDSEGVAVYATSGKFKEFFKQVDYHTVKEVTVGNV | not soluble
DAVPEKSLNAALLCLQAMGALDDNGDVTEHGKKVYPLPIDALFADLVTRIPTKAEKEAMIDLAAALSVPAQLYQLQRGEAAEALEREEPLGCD | not soluble
